Paper PMC5399183

Biological target: Recombinant human integrin αvβ5 (human) (UniProt P06756)
Chain of UniProt P06756 (P06756 31-1048, chain 1 of 2): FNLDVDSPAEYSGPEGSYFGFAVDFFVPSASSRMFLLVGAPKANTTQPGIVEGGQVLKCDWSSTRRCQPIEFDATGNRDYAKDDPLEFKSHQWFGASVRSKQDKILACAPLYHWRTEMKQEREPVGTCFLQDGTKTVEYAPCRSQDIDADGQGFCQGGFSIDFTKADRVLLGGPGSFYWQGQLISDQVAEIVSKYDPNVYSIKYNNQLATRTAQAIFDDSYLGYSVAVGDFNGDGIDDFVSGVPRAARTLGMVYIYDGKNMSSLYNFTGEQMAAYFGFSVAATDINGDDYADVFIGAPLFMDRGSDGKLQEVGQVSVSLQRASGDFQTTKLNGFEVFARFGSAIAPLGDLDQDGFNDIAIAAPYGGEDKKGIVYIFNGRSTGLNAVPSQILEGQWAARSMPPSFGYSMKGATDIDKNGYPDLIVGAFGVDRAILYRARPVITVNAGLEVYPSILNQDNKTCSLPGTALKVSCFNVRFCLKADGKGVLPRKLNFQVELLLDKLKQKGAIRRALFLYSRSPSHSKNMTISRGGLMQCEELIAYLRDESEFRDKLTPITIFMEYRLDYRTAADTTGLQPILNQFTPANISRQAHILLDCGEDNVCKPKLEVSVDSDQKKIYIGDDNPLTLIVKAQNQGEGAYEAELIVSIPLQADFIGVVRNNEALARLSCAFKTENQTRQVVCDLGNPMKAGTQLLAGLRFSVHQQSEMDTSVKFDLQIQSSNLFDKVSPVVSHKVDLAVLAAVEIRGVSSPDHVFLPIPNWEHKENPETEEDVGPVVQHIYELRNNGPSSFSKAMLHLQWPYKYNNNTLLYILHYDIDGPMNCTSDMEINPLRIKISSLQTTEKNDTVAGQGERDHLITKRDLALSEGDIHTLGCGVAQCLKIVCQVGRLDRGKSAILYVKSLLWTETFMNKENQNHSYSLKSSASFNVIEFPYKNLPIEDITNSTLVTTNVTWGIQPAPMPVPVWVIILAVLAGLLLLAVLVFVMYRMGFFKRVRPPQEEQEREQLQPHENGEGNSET
Chain of UniProt P06756 (P18084 24-719, chain 2 of 2, further chain): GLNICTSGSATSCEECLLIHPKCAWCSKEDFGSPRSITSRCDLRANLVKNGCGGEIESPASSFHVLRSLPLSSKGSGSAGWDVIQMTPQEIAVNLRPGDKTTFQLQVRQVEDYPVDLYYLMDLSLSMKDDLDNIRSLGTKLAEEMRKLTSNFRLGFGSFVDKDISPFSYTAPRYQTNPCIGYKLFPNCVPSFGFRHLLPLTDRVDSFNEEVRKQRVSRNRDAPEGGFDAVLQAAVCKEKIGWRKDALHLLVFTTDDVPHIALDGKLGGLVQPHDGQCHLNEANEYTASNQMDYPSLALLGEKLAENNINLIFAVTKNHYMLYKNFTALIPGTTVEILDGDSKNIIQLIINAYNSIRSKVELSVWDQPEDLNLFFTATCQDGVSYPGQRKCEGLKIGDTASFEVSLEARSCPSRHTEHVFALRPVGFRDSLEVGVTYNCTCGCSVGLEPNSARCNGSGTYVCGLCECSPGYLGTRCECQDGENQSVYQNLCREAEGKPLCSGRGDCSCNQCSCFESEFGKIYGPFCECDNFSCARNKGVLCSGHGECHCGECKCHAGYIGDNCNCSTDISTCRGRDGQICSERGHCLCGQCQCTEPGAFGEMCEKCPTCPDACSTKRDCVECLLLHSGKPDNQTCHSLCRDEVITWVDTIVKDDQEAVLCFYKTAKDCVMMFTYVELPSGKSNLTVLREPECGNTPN

Ang2-induced astrocyte apoptosis under high glucose (annexin-V/PI FACS, 48 h, percentage of apoptotic cells) with anti-integrin αvβ5 blocking antibody (10 μg/ml): 19.3%
Substance: Recombinant human angiopoietin 2 (from UniProt O15123 19-496) (ligand)
